Biological target: T1, PUF4 RNA-binding domain (Saccharomyces cerevisiae, UniProt P25339 537-888)
T1 sequence: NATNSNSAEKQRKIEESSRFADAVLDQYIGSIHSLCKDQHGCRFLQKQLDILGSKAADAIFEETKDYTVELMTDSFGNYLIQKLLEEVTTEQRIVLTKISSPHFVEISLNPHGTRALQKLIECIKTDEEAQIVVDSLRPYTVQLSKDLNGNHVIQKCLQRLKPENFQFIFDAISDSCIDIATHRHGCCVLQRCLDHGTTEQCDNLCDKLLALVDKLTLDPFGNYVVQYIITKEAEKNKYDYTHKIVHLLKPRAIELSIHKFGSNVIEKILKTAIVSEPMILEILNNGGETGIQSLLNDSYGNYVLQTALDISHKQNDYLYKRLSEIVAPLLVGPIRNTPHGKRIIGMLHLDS
Test: Mg; RNA-MaP; 20 mM Na-HEPES pH 7.4, 30 mM KOAc, 0.75 mM MgCl2, 0.1% Tween-20, 5% glycerol, 0.1 mg/mL BSA, 2 mM DTT; 25 C; 0.0125-409.6 nM protein
Details: tags: N-His6-TEV cleaved; C-SNAP kept, Cy3B-labelled; label: tethered on chip by stalled RNA polymerase

Binder	Kd
Ic_S2_P3E.1_K3.1_C3.1_H3.1_A3.1_[T5G]_[A6C]_F3.1_[A8G]_T3.1 (ssRNA) RNA: UUUGAUUAAUAUGAUAUCGUUCUUUCUUGUAGCUGUUCUUUCUCGAUAUCAUAUUAAUCUUU	156 nM
Ic_S2_P3E.1_K3.1_C3.1_H3.1_A3.1_[T5C]_[A6C]_F3.1_[T7A]_[A8T]_T3.1 (ssRNA) RNA: UUUGAUUAAUAUGAUAUCGUUCUUUCUUGUACCAUUUCUUUCUCGAUAUCAUAUUAAUCUUU	3.72 nM
Ic_S2_P3E.1_K3.1_C3.1_H3.1_A3.1_[T5C]_F3.1_[T7A]_[A8C]_T3.1 (ssRNA) RNA: UUUGAUUAAUAUGAUAUCGUUCUUUCUUGUACAACUUCUUUCUCGAUAUCAUAUUAAUCUUU	23.8 nM
Ic_S2_P3E.1_K3.1_C3.1_H3.1_A3.1_[T5G]_[A6T]_F3.1_[T7C]_[A8T]_T3.1 (ssRNA) RNA: UUUGAUUAAUAUGAUAUCGUUCUUUCUUGUAGUCUUUCUUUCUCGAUAUCAUAUUAAUCUUU	70.3 nM
Ic_S2_P3E.1_K3.1_C3.1_H3.1_A3.1_[T5C]_[A6T]_F3.1_[T7G]_[A8C]_T3.1 (ssRNA) RNA: UUUGAUUAAUAUGAUAUCGUUCUUUCUUGUACUGCUUCUUUCUCGAUAUCAUAUUAAUCUUU	381 nM
Ic_S2_P3E.1_K3.1_C3.1_H3.1_A3.1_[T5C]_F3.1_[T7A]_[A8G]_T3.1 (ssRNA) RNA: UUUGAUUAAUAUGAUAUCGUUCUUUCUUGUACAAGUUCUUUCUCGAUAUCAUAUUAAUCUUU	1630 nM
Ic_S2_P3E.1_K3.1_C3.1_H3.1_A3.1_[T5C]_[A6C]_F3.1_[T7C]_[A8T]_T3.1 (ssRNA) RNA: UUUGAUUAAUAUGAUAUCGUUCUUUCUUGUACCCUUUCUUUCUCGAUAUCAUAUUAAUCUUU	12.6 nM
Ic_S2_P3E.1_K3.1_C3.1_H3.1_A3.1_[T5C]_[A6T]_F3.1_[T7G]_[A8G]_T3.1 (ssRNA) RNA: UUUGAUUAAUAUGAUAUCGUUCUUUCUUGUACUGGUUCUUUCUCGAUAUCAUAUUAAUCUUU	1390 nM
Ic_S2_P3E.1_K3.1_C3.1_H3.1_A3.1_[T5G]_[A6T]_F3.1_[T7C]_[A8G]_T3.1 (ssRNA) RNA: UUUGAUUAAUAUGAUAUCGUUCUUUCUUGUAGUCGUUCUUUCUCGAUAUCAUAUUAAUCUUU	436 nM
Ic_S2_P3E.1_K3.1_C3.1_H3.1_A3.1_[T5C]_[A6T]_F3.1_[T7A]_[A8C]_T3.1 (ssRNA) RNA: UUUGAUUAAUAUGAUAUCGUUCUUUCUUGUACUACUUCUUUCUCGAUAUCAUAUUAAUCUUU	47 nM
Ic_S2_P3E.1_K3.1_C3.1_H3.1_A3.1_[T5C]_[A6C]_F3.1_[A8G]_T3.1 (ssRNA) RNA: UUUGAUUAAUAUGAUAUCGUUCUUUCUUGUACCUGUUCUUUCUCGAUAUCAUAUUAAUCUUU	17.7 nM
Ic_S2_P3E.1_K3.1_C3.1_H3.1_A3.1_[T5C]_[A6T]_F3.1_[T7A]_[A8T]_T3.1 (ssRNA) RNA: UUUGAUUAAUAUGAUAUCGUUCUUUCUUGUACUAUUUCUUUCUCGAUAUCAUAUUAAUCUUU	3.82 nM
Ic_S2_P3E.1_K3.1_C3.1_H3.1_A3.1_[T5C]_F3.1_[T7G]_[A8T]_T3.1 (ssRNA) RNA: UUUGAUUAAUAUGAUAUCGUUCUUUCUUGUACAGUUUCUUUCUCGAUAUCAUAUUAAUCUUU	13.1 nM
Ic_S2_P3E.1_K3.1_C3.1_H3.1_A3.1_[T5C]_[A6G]_F3.1_[T7G]_[A8C]_T3.1 (ssRNA) RNA: UUUGAUUAAUAUGAUAUCGUUCUUUCUUGUACGGCUUCUUUCUCGAUAUCAUAUUAAUCUUU	536 nM
Ic_S2_P3E.1_K3.1_C3.1_H3.1_A3.1_[T5G]_[A6T]_F3.1_[T7G]_[A8C]_T3.1 (ssRNA) RNA: UUUGAUUAAUAUGAUAUCGUUCUUUCUUGUAGUGCUUCUUUCUCGAUAUCAUAUUAAUCUUU	390 nM
Ic_S2_P3E.1_K3.1_C3.1_H3.1_A3.1_[T5G]_[A6C]_F3.1_[A8T]_T3.1 (ssRNA) RNA: UUUGAUUAAUAUGAUAUCGUUCUUUCUUGUAGCUUUUCUUUCUCGAUAUCAUAUUAAUCUUU	18.6 nM
Ic_S2_P3E.1_K3.1_C3.1_H3.1_A3.1_[T5G]_[A6T]_F3.1_[T7A]_T3.1 (ssRNA) RNA: UUUGAUUAAUAUGAUAUCGUUCUUUCUUGUAGUAAUUCUUUCUCGAUAUCAUAUUAAUCUUU	650 nM
Ic_S2_P3E.1_K3.1_C3.1_H3.1_A3.1_[T5C]_[A6T]_F3.1_[A8G]_T3.1 (ssRNA) RNA: UUUGAUUAAUAUGAUAUCGUUCUUUCUUGUACUUGUUCUUUCUCGAUAUCAUAUUAAUCUUU	107 nM
Ic_S2_P3E.1_K3.1_C3.1_H3.1_A3.1_[T5C]_[A6C]_F3.1_[T7C]_[A8G]_T3.1 (ssRNA) RNA: UUUGAUUAAUAUGAUAUCGUUCUUUCUUGUACCCGUUCUUUCUCGAUAUCAUAUUAAUCUUU	259 nM
Ic_S2_P3E.1_K3.1_C3.1_H3.1_A3.1_[T5G]_[A6T]_F3.1_[T7A]_[A8T]_T3.1 (ssRNA) RNA: UUUGAUUAAUAUGAUAUCGUUCUUUCUUGUAGUAUUUCUUUCUCGAUAUCAUAUUAAUCUUU	27.7 nM
Ic_S2_P3E.1_K3.1_C3.1_H3.1_A3.1_[T5C]_[A6C]_F3.1_[T7A]_T3.1 (ssRNA) RNA: UUUGAUUAAUAUGAUAUCGUUCUUUCUUGUACCAAUUCUUUCUCGAUAUCAUAUUAAUCUUU	30.1 nM
Ic_S2_P3E.1_K3.1_C3.1_H3.1_A3.1_[T5C]_[A6T]_F3.1_[A8T]_T3.1 (ssRNA) RNA: UUUGAUUAAUAUGAUAUCGUUCUUUCUUGUACUUUUUCUUUCUCGAUAUCAUAUUAAUCUUU	9.88 nM
Ic_S2_P3E.1_K3.1_C3.1_H3.1_A3.1_[T5A]_[A6C]_F3.1_[T7G]_[A8G]_T3.1 (ssRNA) RNA: UUUGAUUAAUAUGAUAUCGUUCUUUCUUGUAACGGUUCUUUCUCGAUAUCAUAUUAAUCUUU	984 nM
Ic_S2_P3E.1_K3.1_C3.1_H3.1_A3.1_[T5C]_[A6T]_F3.1_[T7A]_T3.1 (ssRNA) RNA: UUUGAUUAAUAUGAUAUCGUUCUUUCUUGUACUAAUUCUUUCUCGAUAUCAUAUUAAUCUUU	33.9 nM

Binder	Kd
Ic_S2_P3E.1_K3.1_C3.1_H3.1_A3.1_[T5C]_F3.1_[T7C]_[A8T]_T3.1 (ssRNA) RNA: UUUGAUUAAUAUGAUAUCGUUCUUUCUUGUACACUUUCUUUCUCGAUAUCAUAUUAAUCUUU	2.64 nM
Ic_S2_P3E.1_K3.1_C3.1_H3.1_A3.1_[T5G]_[A6C]_F3.1_[A8C]_T3.1 (ssRNA) RNA: UUUGAUUAAUAUGAUAUCGUUCUUUCUUGUAGCUCUUCUUUCUCGAUAUCAUAUUAAUCUUU	181 nM
Ic_S2_P3E.1_K3.1_C3.1_H3.1_A3.1_[T5C]_F3.1_[T7G]_[A8C]_T3.1 (ssRNA) RNA: UUUGAUUAAUAUGAUAUCGUUCUUUCUUGUACAGCUUCUUUCUCGAUAUCAUAUUAAUCUUU	35.4 nM
Ic_S2_P3E.1_K3.1_C3.1_H3.1_A3.1_[T5C]_[A6G]_F3.1_[A8T]_T3.1 (ssRNA) RNA: UUUGAUUAAUAUGAUAUCGUUCUUUCUUGUACGUUUUCUUUCUCGAUAUCAUAUUAAUCUUU	14.5 nM
Ic_S2_P3E.1_K3.1_C3.1_H3.1_A3.1_[T5G]_[A6T]_F3.1_[A8T]_T3.1 (ssRNA) RNA: UUUGAUUAAUAUGAUAUCGUUCUUUCUUGUAGUUUUUCUUUCUCGAUAUCAUAUUAAUCUUU	23.2 nM
Ic_S2_P3E.1_K3.1_C3.1_H3.1_A3.1_[T5C]_[A6C]_F3.1_[T7G]_[A8T]_T3.1 (ssRNA) RNA: UUUGAUUAAUAUGAUAUCGUUCUUUCUUGUACCGUUUCUUUCUCGAUAUCAUAUUAAUCUUU	55.6 nM
Ic_S2_P3E.1_K3.1_C3.1_H3.1_A3.1_[T5C]_[A6C]_F3.1_[A8T]_T3.1 (ssRNA) RNA: UUUGAUUAAUAUGAUAUCGUUCUUUCUUGUACCUUUUCUUUCUCGAUAUCAUAUUAAUCUUU	7.54 nM
Ic_S2_P3E.1_K3.1_C3.1_H3.1_A3.1_[T5C]_F3.1_[T7C]_[A8C]_T3.1 (ssRNA) RNA: UUUGAUUAAUAUGAUAUCGUUCUUUCUUGUACACCUUCUUUCUCGAUAUCAUAUUAAUCUUU	17.3 nM
Ic_S2_P3E.1_K3.1_C3.1_H3.1_A3.1_[T5G]_[A6T]_F3.1_[T7C]_T3.1 (ssRNA) RNA: UUUGAUUAAUAUGAUAUCGUUCUUUCUUGUAGUCAUUCUUUCUCGAUAUCAUAUUAAUCUUU	751 nM
Ic_S2_P3E.1_K3.1_C3.1_H3.1_A3.1_[T5C]_[A6T]_F3.1_[T7C]_[A8T]_T3.1 (ssRNA) RNA: UUUGAUUAAUAUGAUAUCGUUCUUUCUUGUACUCUUUCUUUCUCGAUAUCAUAUUAAUCUUU	10.7 nM
Ic_S2_P3E.1_K3.1_C3.1_H3.1_A3.1_[T5C]_[A6T]_F3.1_[T7C]_[A8C]_T3.1 (ssRNA) RNA: UUUGAUUAAUAUGAUAUCGUUCUUUCUUGUACUCCUUCUUUCUCGAUAUCAUAUUAAUCUUU	126 nM
Ic_S2_P3E.1_K3.1_C3.1_H3.1_A3.1_[T5C]_F3.1_[T7C]_[A8G]_T3.1 (ssRNA) RNA: UUUGAUUAAUAUGAUAUCGUUCUUUCUUGUACACGUUCUUUCUCGAUAUCAUAUUAAUCUUU	31.5 nM
Ic_S2_P3E.1_K3.1_C3.1_H3.1_A3.1_[T5G]_[A6T]_F3.1_[A8C]_T3.1 (ssRNA) RNA: UUUGAUUAAUAUGAUAUCGUUCUUUCUUGUAGUUCUUCUUUCUCGAUAUCAUAUUAAUCUUU	191 nM
Ic_S2_P3E.1_K3.1_C3.1_H3.1_A3.1_[T5C]_[A6T]_F3.1_[A8C]_T3.1 (ssRNA) RNA: UUUGAUUAAUAUGAUAUCGUUCUUUCUUGUACUUCUUCUUUCUCGAUAUCAUAUUAAUCUUU	36.4 nM
Ic_S2_P3E.1_K3.1_C3.1_H3.1_A3.1_[T5G]_[A6T]_F3.1_[T7G]_[A8T]_T3.1 (ssRNA) RNA: UUUGAUUAAUAUGAUAUCGUUCUUUCUUGUAGUGUUUCUUUCUCGAUAUCAUAUUAAUCUUU	105 nM
Ic_S2_P3E.1_K3.1_C3.1_H3.1_A3.1_[T5C]_[A6C]_F3.1_[T7A]_[A8C]_T3.1 (ssRNA) RNA: UUUGAUUAAUAUGAUAUCGUUCUUUCUUGUACCACUUCUUUCUCGAUAUCAUAUUAAUCUUU	81.3 nM
Ic_S2_P3E.1_K3.1_C3.1_H3.1_A3.1_[T5C]_[A6G]_F3.1_[T7C]_[A8C]_T3.1 (ssRNA) RNA: UUUGAUUAAUAUGAUAUCGUUCUUUCUUGUACGCCUUCUUUCUCGAUAUCAUAUUAAUCUUU	126 nM
Ic_S2_P3E.1_K3.1_C3.1_H3.1_A3.1_[T5C]_[A6T]_F3.1_[T7A]_[A8G]_T3.1 (ssRNA) RNA: UUUGAUUAAUAUGAUAUCGUUCUUUCUUGUACUAGUUCUUUCUCGAUAUCAUAUUAAUCUUU	692 nM
UCUCUUUAUACAUAUCUCUU (ssRNA) [Ib_S1_P3E.1_K3.1_C3.1_H3.1_[G2A]_A3.1_[T5C]_F3.1_T3.1]	900 nM
UCUCUUUUUAUGUAUCUCUU (ssRNA) [Ib_S1_P3E.1_K3.1_C3.1_H3.1_[G2T]_A3.1_[A6G]_F3.1_T3.1]	354 nM
UCUCUUUCUAUUUAUCUCUU (ssRNA) [Ib_S1_P3E.1_K3.1_C3.1_H3.1_[G2C]_A3.1_[A6T]_F3.1_T3.1]	> 2300 nM
UCUCUUUCUAAAUAUCUCUU (ssRNA) [Ib_S1_P3E.1_K3.1_C3.1_H3.1_[G2C]_A3.1_[T5A]_F3.1_T3.1]	> 2300 nM
UCUCUUUUUAUCUAUCUCUU (ssRNA) [Ib_S1_P3E.1_K3.1_C3.1_H3.1_[G2T]_A3.1_[A6C]_F3.1_T3.1]	> 2300 nM

— paper PMC9352680, “A comprehensive thermodynamic model for RNA binding by the Saccharomyces cerevisiae Pumilio protein PUF4”
